Source: patent US11492376B2, “Toxoplasma gondii GRA8-derived recombinant peptides and composition for preventing or treating cancer comprising the same” (Industry—University Cooperation Foundation Hanyang …, priority 2019, dated 2022)

How the values were obtained:
HCT116 cells = test: MTT assay of cell viability, HCT116 cells; format: cell-based, human
Procedure: FIGS. 1A, 1B and 1C: confirms that rGRA8 treatment increases HCT116 cell death by mitochondria pathways [(A and B). Various cancer cells were incubated with WT rGRA8 (20 μg/ml) and its mutants for indicated times and then cell viability was measured by MTT analysis (upper) and αATP5A1, αSIRT3 or αActin immunoblotting (lower) was performed. […] The cells were incubated with WT rGRA8 for indicated times and subjected to IP with αLys-AC or αHis and IB with αATP5A1, αATP5C1, αSIRT3, αPGC-1, αPKCα or αActin. Data represents five independent experiments with similar results. Significant differences were determined by comparison with rVector treatment (** P<0.01; *** P<0.001)].
(§1) FIGS. 4A, 4B, 4C, 4D and 4E show HCT116 cell death by rATRAM-GRA8-M/AS-induced mitochondrial activation [(A and B) HCT116 cells were incubated with WT rGRA8 or rATRAM-GRA8-M/AS and its mutants for indicated times, and then cell viability was measured with an MTT assay. […] The cells were stimulated with rATRAM-GRA8-M/AS for 1 day and subjected to enzymatic activity of OXPHOS V, and (C) MitoTracker fluorescence signals were assessed by flow cytometry. (D) A bar graph indicates a mitochondrial mass (MFI), and (E) the mtDNA content of BMDM was measured by quantitative real-time PCR. The mtDNA content was normalized by nuclear DNA. Significant differences were determined by comparison with control treatment (** P<0.01; *** P<0.001). Data represents five independent experiments with similar results].
As described in Non-Patent Document 1, the cell viability for a non-treated group was measured by an MTT assay. After incubation for an indicated time, 5 mg/ml of a 3-(4,5-dimethyl thiazol-2-yl)-2,5-diphenyltetrazoliumbromide (MTT) solution was added to a medium, and the cells were further incubated for 4 hours. Subsequently, all of the medium was removed, the same volume of a dimethyl sulfoxide (DMSO) solution was added for 15 minutes to dissolve formazan. Using a UV/VIS spectrophotometer, each well of a plate was measured at 540 nm to measure relative cell viability.

complex V OXPHOS = molecular target: T1, complex V OXPHOS (Homo sapiens, UniProt P25705); test: Mitochondria complex V OXPHOS activity assay in HCT116 cells; format: cell-based
T1 construct: rATRAM-GRA8-M/AS enhanced complex V OXPHOS activity, mitochondrial mass and mitochondrial DNA content via SIRT3 and PKCα in HCT116 cells; endogenous in cells; host or cells: HCT116 cells
Procedure: as §1
The activity of complex V was measured using a MitoTox Complex V OXPHOS Activity Microplate Assay kit manufactured by Abcam (ab109907, MA, Cambridge) according to the manufacturer's instructions. The activity of complex V was measured by monitoring the change in absorbance at 340 nm for 1 hour at 30° C. Oligomycin (Sigma, 04876) was used as a positive control for the assay.

[1] = Pharmacokinetics and drug distribution in HCT116 tumor-bearing mice (His immunoblotting of organs); format: in vivo, BALB/c mouse
Procedure: The […] were administered into the mouse by intraperitoneal injection once (left) or twice (right), and then the mouse was sacrificed on day 5. His expression was evaluated by immunoblotting (IB) in various organs from a mouse. The whole cell lysate was used for IB with anti-actin. Data represents four independent experiments with similar results. (B) The schematic diagram of an rGRA8 WT (upper)-treated xenograft model. […] The length and width of the tumors were measured using calipers, and a tumor volume was calculated every third day for 30 days. Individual tumor volumes from each mouse in each group were averaged and graphed over days after inoculation. Statistical significance was determined by two-way analysis of variance (ANOVA) with a Tukey's post-test; * P<0.05, *** P<0.001, compared with rVector. Each group included 10 mice. Data represents two independent experiments with similar results.

[2] = Immunogenicity: specific IgG by ELISA in immunized mice; conditions: immunized BALB/C mice, OD 450 nm
Procedure: Immunoblotting was performed with anti-PKCα, anti-ATP5A1, anti-SIRT3 or anti-actin. […] (B) The schematic diagram of a xenograft model treated with rVector (upper). HCT116-expressing ATP5A1 WT and mutant cells were subcutaneously injected into the flank of nude mice. […] Each group included 10 mice. […] (C) Humoral immune responses in BALB/C mice. The mice were immunized via each route (intravenous injection or intraperitoneal injection) every third day, and subjected to blood collection on day 40. […] The values are expressed as mean±standard deviation for absorbance (OD) at 450 nm. Each group included five mice. (D) Cytokine response for rATRAM-GRA8-M/AS in tumor-bearing mice. As described in the method section, HCT116 cells were subcutaneously injected into the flank of a BALB/c mouse. A serum cytokine level was measured on day 30 after administration. Each group included 10 mice.
Since immunogenicity is closely related with safety and efficacy, it is one of the critical factors for development of therapeutic proteins. Therefore, by monitoring the production of antibodies against rATRAM-GRA8-M/AS in immunized mice, the immunogenicity of rATRAM-GRA8-M/AS was investigated. After three consecutive injections of rATRAM-GRA8-M/AS, a level of IgG antibody was analyzed using enzyme-linked immunosorbent assay (ELISA).

[3] = tumor-bearing mice, intraperitoneal injection

B1: (GLAGLAGLLGLEGLLGLPLGLLEGLWLGLELEGN)2-GG-ATATTTTTTR-GG-YRFTVQTTQN (protein)
chain: GLAGLAGLLGLEGLLGLPLGLLEGLWLGLELEGNGLAGLAGLLGLEGLLGLPLGLLEGLWLGLELEGNGGATATTTTTTRGGYRFTVQTTQN
modifications: His tag; rATRAM-G8-M/AS
For B1, the “fold improvement of IC50 compared with rGRA8 (cell death of cancer cell line)” value (HCT116 cells; HCT116 cells) was 200 fold, the “IC50 (HCT116 cell death)” value (HCT116 cells; HCT116 cells, MTT (FIG. 4A)) was 0.1 µg/mL and the “fold improvement of IC50 compared with rGRA8 (cell death of cancer cell line)” value (HCT116 cells; HCT116 cells, listed as rATRAM-G8-M/AS) was “approximately 200 fold”. For the same molecule, the “cell death in HCT116 cells” value (HCT116 cells; dose response, MTT (FIG. 4A)) was “induced cell death in HCT116 cells in a dose-dependent manner”, the “complex V OXPHOS activity” value (complex V OXPHOS; HCT116 cells, 1 day, via SIRT3 and PKCα) was “enhanced” and the “mitochondrial activity (Oxphos V activity, mitochondrial mass and ATP production) in cancer cells” value (complex V OXPHOS; summary statement, FIG. 4) was “induced”. For the same molecule, the cancer cell targetability ([1]; immunoblotting, FIG. 5) was “excellent cancer cell targetability”, the disappearance from tumor [1, 3] was “gradually disappeared by day 3” and the “time the tumor location was maintained” value [1, 3] was “up to 2 days”. The “location of protein among organs” value ([1]; tumor-bearing mice, intraperitoneal injection, His immunoblotting) was “located in tumor cells” and the “level of specific IgG antibody” value [2] was “negligible”.
